The DeepSol protein solubility set

Test: soluble on expression in E. coli; label from the status in PepcDB or PDB records

Soluble on expression in E. coli, not soluble:
MAGDPMGRQRGAGLGGGHDEREQTLNQMLVEMDGFSGNDGVIVIAATNRPDVLDPALTRPGRFDRQVVVGLPDVKGREQILKVHMRKVSVAQDVDAMTLARGTPGYSGADLANLVNEAALFAARVNKRTVTMLEFEKAKDKINMGPERRTMIMTDKQKESTAYHEAGHAIVGYLVPEHDPVHKVTIIPRGRALGVTFFLPEGDQISISQKQLESKLSTLYAGRLAEDLIYGEENISTGASNDIKVATNIARNMVTQWGFSEKLGPILYTEDEGEVFLGRSMAKAKHMSDETAHSIDEEVRAIVNRNYARAREILIDNMDILHAMKDALVKYETIEEEQIKQLMNREPVTPPSGWGEPKTQQAAYANSTTNDTKPESAVENTDDFNVAAALEHHHHHH
MTEAIHCIGCGAIIQTENPHELGYTPKTAFEKGMETGEVYCQRCFRLRHYNDIQDVQLTDDDFLRLLNGLGTEDALIVNVVDIFDFNGSLIPGLHRFIGDNPVLLVGNKVDILPKSLKKPKMVQWMRERAHEAGLRPVDVLLTSGKKPQEMQELLDTIEKYREGRDVYVVGVTNVGKSTLINQIIQQTVGVQDVITTSQFPGTTLDKIEIPLDDGHFLIDTPGIIHRHQMAHYLGKKDLKIIAPQKEIKPKVYQLNAEQTLFLGGLARFDYVQGAKSSFIAYVSNDLKLHRTKTATADAFYEKHVGGLLQPPRADEVAEFPELVRFEFSVKEKTDIVFAGLGWITVTEPGVVAGWAPKGVDVLRRKALILEHHHHHH
MGSDKIHHHHHHMLPPLDSDLMRGFLAVVETGSLTRAGHRLGRTQSAISMQIRKLEDSLGQSVFVREPRGVRLTERGKQLLPYAQRVVGLLDEAAIALREKPLSGPVRVGVPDEYIQGVLPAVLSAFSQRHPETQVTLRCDFSAPQLEALNSDKIDLAVIYEGYSTDEVEVLAVDPTVWVTSISHAQHLHRPLPISIYFSSDWCRDFALHSLEQIGIPYFAAFECDTSGGMRSAVSNGIAVAPLARSSIPPGCRELTAEDGFMGVDNARVVLRRNPAGSSTAIEAMVATLREAFWPLTKNGGL
MGSDKIHHHHHHMIKCIDVNDLKVGMYIHDLNCDWMSHPFLVNRFKVKDESEIRKIADAGIHEVYIDTRKGMDLPSARSEGEVRKQLESELREIASRERTVTRHVEAAEEFGRAQTIHHEANQIIRDILQDVRLGKQVELEQVEPQVEKLTGSILRNGGALLSLCRIKDKDNYTFQHSVSVGALMVSFCNALGMSKEVIHHAGIGGMLHDIGKMKVPDSILNKPGKLTEQEFMVMKCHVVESQKILHATRGISETAVLVAGQHHERHDGSGYPAGLKGEEISQLGQMAAIVDVYDALTSNRCYHKGMPPTDALRKIYEWSKFHFNPELVQAFMRVIGIYPVGTLVRLESGRLGVVVEQNEDNLVSPKVKVFFSTKSNTHIPPEVVDLSRRMGFGGGDRIVKHESPEKWKIDPLRFL
MGSDKIHHHHHHLRNVLPKDALLTAVDISDSMMDVARAKFLPHEQVTFQVADATTLPFENEAFDAVVCQFGVMFFDKDTAFREAYRTLGRGGRYLFSVWDSRRYNPFASLAFEVLKQFFPLNPPRFLEAPVSSFEIDPIKEALIQSGFERIVISVQGREHDILDVRTFARGLVFSPVIEEIRERGGVEPEDIIAALAEALKREYGSRPTRYPMQAILFEAEKP
MIYSFRNSGFRDPETGVYNQTYFMEVFNREWHRHIREQQSLALLYLCPHIHETVKQPHLLEFFTKQVQEALLRATDLIARLDHNHFALGLFNIDEEGTEVVLKRIGQHIQDFNQEFGKNHKLKIDYKLAACLCLPTQEQKIESMFNNVSKLSQELERSPQQSQALIKLQ
MGSDKIHHHHHHMSKGRHVCFLTGTLNAMAGAERMTAVIANALAESGHTVSILSLWDKDSCFPLHPAVGHEALFAERPSFKKAYLTTVAGIRRYCRERKVDVLVQVDTMLALLALPATVGLGVQHIAWEHCHFDEDLGRRARRYARRLAARYCKHVVVLTERDQLRWIEALQPRSQVVIIPNPLPFPFPEEPAPRTGKIVLAMGRLVNAKGFDVLIRAWQRVSAEVPDWKLVIHGEGEERPALSALIDELGLQDSVSLPGICRDATEAYREASIFCLSSRYEGFGLVLIEAMAFGLPIVSTNCEAGPRELLATGTVGLTVPVDAPTMLAASILDLIHQPDLALRFAHAERMFAKGYSLQQIGARWSDLTSARHGSMPQYS
SLTITVLQGGNVLDLERGVLLEHHHVVIDGERIVEVTDRPVDLPNAQAIDVRGKTVMPGFIDCHVHVLASNANLGVNATQPNILAAIRSLPILDAMLSRGFTSVRDAGGADWSLMQAVETGLVSGPRIFPSGKALSQTGGHGDFRPRGDLLEPCSCCFRTGAIARVVDGVEGVRLAVREEIQKGATQIKIMASGGVASPTDPIANTQYSEDEIRAIVDEAEAANTYVMAHAYTGRAIARAVRCGVRTIEHGNLVDEAAAKLMHEHGAFVVPTLVTYDALAKHGAEFGMPPESVAKVASVQQKGRESLEIYANAGVKMGFGSDLLGEMHAFQSGEFRIRAEVLGNLEALRSATTVAAEIVNMQGQLGVIAVGAIADLVVLDGNPLEDIGVVADEGARVEYVLQRGTLVKRQAGGR
MHRSFAAFSILLVAIPQASSFLFGGGCCGAPAVQSCCGSTSWAYAPPQVIGYERIPLYAKVPMPPPPTYVQPPLVGYVSPQQPVAPQGYQQQPQQQFMGQVEQGVEITPDQINSGYQPQQQMGFQSQQQQFSSIPNSGSSNYGADSSFSGSQPAGLVQSVASSAAFEAAGVAPSARRLRKFKN

Soluble on expression in E. coli, soluble:
MSLSVVERIFNHSESRPDCIAVYENDRTISYENLASDIKKTAAKLVSLGVTSEDAVLVRSNNSYSFILLYFSIHYVGAKFVNVAPDSDVSYVSFIEDKVNPKLFIEKSQDFIRNIDSYTFDNIFPPQARGIADIMFTSGTTGEPKGVLLSHKSLVLATEHIISHVKNTNEDVELLLMPLSHSFAMARMRTSLFAGGAIVVGCSFKQLKSVFKAIEFYKVTGLGLVPSAWSYITLMTKDLIRKYSEQLNFIEFGSAHFPFEDKKQVAEWFPNTNVVMHYGLTEVSRATFIDFHNDDINAVGHRYRGADFKIIDNKGAEVIEGEEGEIVFKAPWMLDGYFENSQLTSDCFVEGYFKTGDLGRVVGDYLFLTGRLKEIINVGGKKVSPDQVEKVLSEALGVQECACAALSDANMGEVVQAYIVVKSGWDCENVISNIKETINGQLPMHMRPKKYSIVSALPKTVSGKVQRYKLSSEGHHHHHH
GPGSMASNITAERYEQLKKERTFHKFTYRGLEIDPLLALSEEEFKALVHARARRNMNRHADRRPPVLLKRLREAKKHVKVGEKPKAVKTHLRDVVITPEMVGSVVAIYNGHQFNAVEIKGEMIGHYLGEFSMSYRPVLHGRPGVGATHSSRFIPIK
MEDLYPSRQNNQPKILKRKDPVIYTDRSKDNQAPITKEQLDSYEKNGFLQIKNFFSEDEVIDMQKAIFELQDSIKDVASDKVIREPESNDIRSIFHVHQDDNYFQDVANDKRILDIVRHLLGSDVYVHQSRINYKPGFKGKEFDWHSDFETWHVEDGMPRMRAISVSIALSDNYSFNGPLMLIPGSHNYFVSCVGETPDNNYKESLKKQKLGVPDEESLRELTRIGGGISVPTGKAGSVTLFESNTMHGSTSNITPYPRNNLFMVYNSVKNRLVEPFSGGEKRPEYIAVREKQPVYSAVNSAWSHPQFEK
MAIELHGAISPQDDGSFDSKTLGTICWGDHNNVYMVIGNQTLEGKISKIDRPLLVIQKSDKNHQENGEKNATVNAVIRKKLVFKTRPRPLVLSTVV
MSLNLIKYGLTTAVQADLTKENGQILGRIIGQHRDWYQVITTAGERSAQVTGKLAYEAASPAAFPAVGDWVCLSSSADNQAQIEAIAPRQSVLARGAVNRQDGQIIATNINTIFICMSLNADFNVRRLERYLTIAWDSGALPVIVLTKADLCTDLATKLRAVADVSVGVPTITCSVETGQGLDELQPYLTTGQTVAFVGSSGVGKSTLINRLLGQDILATKSIRTDDNKGRHTTTSRQLIPLPTGACVIDTPGMRELQIFMGDLNQTFAEIAALATQCKFNDCTHTSEPGCAVRAAVEVGTVTSERLQSYQKLQREMSYQGEGHHHHHH
MSLVSGFSVTLGEATSSNPSYKSAVMDYFKAKTDKDLQSADIKIVTASEVNEVSRGVTGRVYSPSQILSCAMVDLSYSDGIKVSVDTSKIRVVTPEMYASALRSSGIDRGYVVVTSPVPASGEAALAGVLKSYEIAVGEQIPEEAKRVSVEEIYLQSRLVNETNATGDRVAELFDEVKNRTQSQNLQDPADIQRVVVDVSQQMNINLTETQVQQVADSVAASQRVQGSLTEFKQRLEGVSQQVGGSGILDQIYAFLQSIYNYIMGIASPEGHHHHHH
MSLKEVAAKTGIGTLPEWNLGDLYMGIDAPEIAHDLAKMDAECVAFETDYKGKLAEHVARDDGGEWLAAAVRRYEAIDDLAGRLGSFAGLAHAGDSVDPAISKFYGDISERLTAASTHLLFFPLELNRIDDAVIERAMETPALGHYRPWIEDLRKDKPYQLEDRVEQLFHEKSQTGYSAWNRLFDQTIAGLRFQVGGKELAIEPTLNFLQDRDGAKRKAAAEALAKTFKANERTFALITNTLAKDKDISDRWRGFQDVADSRHLNNRVEREVVDALVASVRAAYPKLSHRYYQLKARWFKKKKLAHWDRNAPLPFAANATIAWPDAKNMVLTAYRGFSPEMADIAQRFFDQSWIDAPVRPGKAPGAFSHPTTPSAHPYVLMNYQGKPRDVMTLAHELGHGVHQVLAARQGALMAPTPLTLAETASVFGEMLTFKRLLSETRDAKQRQALLAGKVEDMINTVVRQIAFYSFERAVHTERKNGELTAERLGQIWLSVQTESLGEAIEIKPGYENFWMYIPHFIHSPFYVYAYAFGDCLVNSLYAVYEHAAEGFAERYLAMLAAGGTKHYSELLAPFGLDAKDPKFWDGGLSVIAGMIDELERMGEGHHHHHH
MGHHHHHHSHMDQEMRVKRLESEKQELQEQLDLQHKKCQEANQKIQELQASQEARADHEQQIKDLEQKLSLQEQDAAIVKNMKSELVRLPRLERELKQLREESAHLREMRETNGLLQEELEGLQRKLGRQEKMQETLVGLELENERLLAKLQSWERLDQTMGLSIRTPEDLSRFVVELQQRELALKDKNSAVTSSARGLEKARQQLQEELRQVSGQLLEERKKRETHEALARRLQKRVLLLTKERDGMRAILGSYDSELTPAEYSPQLTRRMREAEDMVQKVHSHSAEMEAQLSQALEELGGQKQRADMLEMELKMLKSQS
MSLDVSDDADRLQTLLYSSYSADVVRQLERPLLDDGVPLMRMAASAVARVTLSLLDDEDLDVEDARVTVLAGAGDNGGDGLYAGAELAREGAQVTAVAVGRSLHEDAFREFVRAGGRVLVLDPAADIPGCTSGFSAGEAGERLQAAVECARGAHVVLDAMTGIGVAGALRGVAGTLASSLGMDGVLPDKPALPNNDPSADLPLVVAVDAPSGVGVDDGSLPGPYIPADVTVTFGAMKPCAMVPPASYACGRITLVDFGFDVDDAVPFAEMTDGDFVADSVRLPSLADGKYSRGVVGLVTGSARYPGAAVLSARAAACANVGMVRYLGPQRAQDMILAVLPEAVLGKGRVQSWVVGSGVPAEGDVASGDDMQRATIAALLDHYALEDGDGSRNERAEGMPPIVVDAGALDLLPCHVVPQVVITPHAGELAALLNRLDADMADVVSRQWVEARPLRAALRAHELTGATVLLKGAVTIVVGADGDGNTRIILSGRAPAWMATAGSGDVLAGVLGALLAQQDDMLSDDPALVPEVAAAAAYMHGLAGAMASGSEQRGWHRPHLYGHAGKTPASAIGHPIVAGDVVAAVPRAFGELLREGHHHHHH
MSDGKEELVNRAKLAEQAERYDDMAASMKKVTELGAELSNEERNLLSVAYKNVVGARRSSWRVISSIEQKTEGSEKKQQMAKEYREKVEKELRDICQDVLNLLDKFLIPKAGAAESKVFYLKMKGDYYRYLAEVASGDDRNSVVEKSQQSYQEAFDIAKDKMQPTHPIRLGLALNFSVFFYEILNAPDKACQLAKQAFDDAIAELDTLNEDSYKDSTLIMQLLRDNLTLWTSDAATDDTDANETEGGN
